Results: PMC3185416
Where two headings read alike, the source gives them in different places.

Legend:
[1] = target: T1, Smad4 MH1 (mouse, UniProt P97471 1-140); assay: EMSA
[2] = target: T2, Smad4 MH1dN8 (mouse, UniProt P97471 9-140); assay: crystal structure
[3] = target: T1, Smad4 MH1; assay: EMSA; remark: listed apart in the source
[4] = target: Smad3 MH1 S100K (UniProt Q8BUN5 1-143, S99K); assay: EMSA
[5] = target: Smad3 MH1 K33R (UniProt Q8BUN5 1-143, K33R); assay: EMSA
[6] = target: Smad3 MH1 99HSHH102/HKN (UniProt Q8BUN5 1-97+=HKN+102-143, internal_change); assay: EMSA
[7] = target: Smad4 MH1;Smad2dE3 MH1 (mouse;mouse?, UniProt P97471;Q62432-2 1-140;1-153, |del79-108); assay: EMSA
[8] = target: Smad4 MH1;Smad1 MH1 (mouse;mouse?, UniProt P97471;P70340 1-140;1-136, |); assay: EMSA
[9] = target: Smad4 MH1;Smad3 MH1 (mouse;mouse?, UniProt P97471;Q8BUN5 1-140;1-143, |); assay: EMSA
[10] = target: Smad4 MH1dN3 (mouse, UniProt P97471 4-140); assay: EMSA
[11] = target: T2, Smad4 MH1dN8; assay: EMSA
[12] = target: Smad4 MH1dN10 (mouse, UniProt P97471 11-140); assay: EMSA
[13] = target: Smad4 MH1dN12 (mouse, UniProt P97471 13-140); assay: EMSA
[14] = target: Smad1 MH1 (UniProt P70340 1-136); assay: EMSA
Chain of Smad1 MH1 (P70340 1-136): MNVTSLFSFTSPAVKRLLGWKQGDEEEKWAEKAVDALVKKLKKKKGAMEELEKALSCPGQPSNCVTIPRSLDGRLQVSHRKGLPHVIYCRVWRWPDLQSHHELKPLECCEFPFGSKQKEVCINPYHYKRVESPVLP

[15] = target: Smad4 MH1 AG/SH (mouse, UniProt P97471 1-140, A85S;G86H); assay: EMSA
[16] = target: Smad4 MH1 105HKN107/HSHH (mouse, UniProt P97471 1-104+=HSHH+108-140, internal_change); assay: EMSA
[17] = target: Smad4 MH1 K106S (mouse, UniProt P97471 1-140, K106S); assay: EMSA
[18] = target: Smad4 MH1 R38K (mouse, UniProt P97471 1-140, R38K); assay: EMSA
[19] = target: Smad3 MH1 (UniProt Q8BUN5 1-143); assay: EMSA
[20] = target: Smad2dE3 MH1 (UniProt Q62432-2 1-153, del79-108); assay: EMSA
[21] = target: T1, Smad4 MH1; assay: EMSA; remark: listed apart in the source

Measured: binding result

B1: OPN1 promoter element (dsDNA)
DNA 1: TGGAGACTGTCTGGA
DNA 2: TCCAGACAGTCTCCA
binds: [1]

B2: palindromic SBE 16-bp (crystal) (dsDNA)
DNA 1: TGCAGTCTAGACTGCA
DNA 2: TGCAGTCTAGACTGCA
binds: [2] | [3]

B3: palindromic SBE (EMSA) (dsDNA)
DNA 1: TCAGTCTAGACATAC
DNA 2: GTATGTCTAGACTGA
not listed: [1] | [2] | [3]
binds: all other assays above

B4: JunB promoter element (dsDNA)
DNA 1: GACAGTCTGTCTGCC
DNA 2: GGCAGACAGACTGTC
binds: [1]
